Measurements: article PMC4002904

Experiments:
[1] = target: GAL4 DNA-binding domain fused full-length HBSP (Hepatitis B virus); experiment: two-hybrid; CheckMate mammalian two-hybrid in Huh-7 cells; pACT-EPHX1(353-455) with pBIND constructs and pG5luc reporter; renilla-normalised firefly luciferase at 48 h, relative to pBIND + pACT set to 1
[2] = target: GAL4 DNA-binding domain fused N terminal 47 amino acids of HBSP (Hepatitis B virus); experiment: as above

B1: VP16-tagged mEH 353-455 (domain or fragment)
chain: DLLTNVMLYWTTGTIISSQRFYKENLGQGWMTQKHERMKVYVPTGFSAFPFELLHTPEKWVRFKYPKLISYSYMVRGGHFAAFEEPELLAQDIRKFLSVLERQ
fold luciferase activity over the negative control [1]: 9 fold | fold luciferase activity over the negative control [2]: 12 fold
